Experiments:
[1] = molecular target: T1, human LAG3 on HEK293F cells (human, UniProt P18627 23-525); test: flow cytometry, transfected HEK293F cells
T1 construct: whole, on cells
T1 sequence (looked up): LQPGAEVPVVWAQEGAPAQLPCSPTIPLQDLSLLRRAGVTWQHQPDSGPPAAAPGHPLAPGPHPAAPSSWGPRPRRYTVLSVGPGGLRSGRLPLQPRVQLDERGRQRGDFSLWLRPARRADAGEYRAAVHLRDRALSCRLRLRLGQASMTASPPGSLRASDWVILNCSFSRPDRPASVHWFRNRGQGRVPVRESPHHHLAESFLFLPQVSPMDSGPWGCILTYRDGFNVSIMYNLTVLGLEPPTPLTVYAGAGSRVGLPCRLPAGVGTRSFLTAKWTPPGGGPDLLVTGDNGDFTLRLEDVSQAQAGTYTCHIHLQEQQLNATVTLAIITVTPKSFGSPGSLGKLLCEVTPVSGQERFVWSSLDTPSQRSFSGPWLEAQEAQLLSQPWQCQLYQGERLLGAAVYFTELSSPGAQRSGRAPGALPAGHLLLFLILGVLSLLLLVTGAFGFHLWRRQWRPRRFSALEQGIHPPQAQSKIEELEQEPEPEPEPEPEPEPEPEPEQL
Procedure: (§1) Antibody selectivity was next examined. Human CTLA4, PD1, LAG3, Tim3, B7H3, CD95, TNFR1, OX40, CD40, PD-L1, BLTA, VISTA, PDL2, ICOS and B7H4 were transiently overexpressed on the surface of HEK293F cells. Transfected cells were washed in pre-chilled 1×PBSA buffer (1.76 mM KH2PO4, 10.14 mM Na2HPO4.12H2O, 2.68 mM KCl, 136.89 mM NaCl and 1% BSA), then incubated with 100 nM test antibodies for 1 hour on ice. Cells were washed once with staining buffer, and Alexa Fluor® 647 conjugated mouse anti-human FC antibodies were added and incubated for 30 minutes on ice, protected from light. Samples were washed once with staining buffer prior to analysis by flow cytometry.

[2] = molecular target: T2, full-length mouse CTLA4 expressed on HEK293F cells (mouse, UniProt P09793 36-223); test: flow cytometry, transfected HEK293F cells, antibody concentration not given
T2 construct: whole, on cells
Procedure: (§2) The affinities of the antibodies were also assessed against human and mouse CTLA4 transiently expressed on the surface of HEK293F cells (FIG. 2). Briefly, HEK293F cells were transfected with a plasmid expressing full-length human, monkey or mouse CTLA4 from a bicistronic IRES vector also encoding EGFP, and EGFP expression was used to identify the transfected cells. After 48 hours, the mammalian cell suspension (2×10⁵/well) was transferred to an Eppendorf tube, centrifuged, the supernatant was discarded, the cells were resuspended with 1 mL PBSA (to a density is 4×10⁶ cells/mL), and added to a 96 well plate. […] The cells were then washed once prior to analysis by flow cytometry (Beckman® CytoFlex).

[3] = molecular target: T3, full-length human CTLA4 expressed on cells (human, UniProt P16410 36-223); test: as above
T3 construct: whole, on cells; also called HEK293F/hCTLA-4 cells; HEK293F/hCTLA4 cells
T3 sequence (looked up): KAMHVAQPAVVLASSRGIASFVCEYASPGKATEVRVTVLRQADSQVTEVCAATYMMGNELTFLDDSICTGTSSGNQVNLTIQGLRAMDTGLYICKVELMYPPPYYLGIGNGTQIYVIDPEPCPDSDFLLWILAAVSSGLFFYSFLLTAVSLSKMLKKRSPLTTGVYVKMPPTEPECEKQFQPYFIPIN
Procedure: as §2

[4] = molecular target: T4, human CD95 on HEK293F cells (human, UniProt P25445 26-335); test: flow cytometry, transfected HEK293F cells, 100 nM antibody
T4 construct: whole, on cells
T4 sequence (looked up): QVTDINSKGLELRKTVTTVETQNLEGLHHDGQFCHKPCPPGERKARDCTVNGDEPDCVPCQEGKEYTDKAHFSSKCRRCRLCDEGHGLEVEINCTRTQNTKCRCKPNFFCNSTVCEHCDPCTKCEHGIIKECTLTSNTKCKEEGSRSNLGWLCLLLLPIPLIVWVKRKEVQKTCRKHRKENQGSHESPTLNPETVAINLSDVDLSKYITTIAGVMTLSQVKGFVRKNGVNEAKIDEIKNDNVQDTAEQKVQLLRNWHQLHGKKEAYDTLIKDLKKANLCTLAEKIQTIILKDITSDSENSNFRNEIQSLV
Procedure: as §1

[5] = molecular target: T1, human LAG3 on HEK293F cells; test: as above
Procedure: as §1

[6] = molecular target: T5, human PD1 on HEK293F cells (human, UniProt Q15116 25-288); test: as above
T5 construct: whole, on cells
T5 sequence (Q15116 25-288): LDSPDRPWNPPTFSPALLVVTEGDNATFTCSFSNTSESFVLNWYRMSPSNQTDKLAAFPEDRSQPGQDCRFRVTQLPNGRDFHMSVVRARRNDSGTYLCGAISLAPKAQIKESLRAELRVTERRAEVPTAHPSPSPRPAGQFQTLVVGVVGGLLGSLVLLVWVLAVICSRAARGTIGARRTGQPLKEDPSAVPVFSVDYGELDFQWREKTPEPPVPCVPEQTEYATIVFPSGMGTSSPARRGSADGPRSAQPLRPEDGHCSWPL
Procedure: as §1

[7] = molecular target: T6, human OX40 on HEK293F cells (human, UniProt P43489 29-277); test: as above
T6 construct: whole, on cells
T6 sequence (looked up): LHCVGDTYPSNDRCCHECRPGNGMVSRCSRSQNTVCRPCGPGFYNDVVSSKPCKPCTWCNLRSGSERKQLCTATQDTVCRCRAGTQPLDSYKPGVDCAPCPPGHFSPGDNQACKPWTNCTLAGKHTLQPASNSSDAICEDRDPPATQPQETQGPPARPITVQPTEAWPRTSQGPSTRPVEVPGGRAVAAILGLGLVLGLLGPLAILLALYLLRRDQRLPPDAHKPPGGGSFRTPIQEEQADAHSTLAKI
Procedure: as §1

[8] = molecular target: T3, full-length human CTLA4 expressed on …; test: as above
Procedure: as §1

B1: TY21691 (antibody, V domains shown)
VH: EVQLVESGGGLVQPGGSLRLSCAASGFTFSDYAIHWVRQAPGKGLEWIGIISPSGGSTKYAQKFQGRVTISRDNSKNTLYLQLNSLRAEDTAVYYCARLGYGYFDVWGQGTLVTVSS
VL: DIQLTQSPSSLSASVGDRVTITCRASQSVDFYGISFLHWYQQKPGKAPKLLIYDASSLESGVPSRFSGSGSGTDFTLTISSLQPEDFATYYCVQALQLPLTFGQGTKVEIK
notes: human IgG1 (hIgG1) from Fab hit B15736
[1]
  binding result: no binding (tested: 100 nM)

B2: TY21585 (antibody, V domains shown)
VH: EVQLVESGGGLVQPGGSLRLSCAASGFTFSDYAIHWVRQAPGKGLEWIGIISPSSGSTNYAQKFQGRVTISRDNSKNTLYLQLNSLRAEDTAVYYCARDIHSGSSGYYYGFDVWGQGTLVTVSS
VL: DIQLTQSPSSLSASVGDRVTITCRASESVDFFGISFLAWYQQKPGKAPKLLIYDASNRATGIPSRFSGSGSGTDFTLTISSLQPEDFATYYCQHYTSSPPVYTFGQGTKVEIK
notes: human IgG1 (hIgG1) from Fab hit B15709
[2]
  % of cells in upper right quadrant (Q2): 30.8%
[3]
  % of cells in upper right quadrant (Q2): 25.7%
[4]
  % of cells in upper right quadrant (Q2): 0.23
  Mean: 6720
[5]
  % of cells in upper right quadrant (Q2): 0.66%
[6]
  % of cells in upper right quadrant (Q2): 1.33%
[7]
  % of cells in upper right quadrant (Q2): 0.43
  Mean: 10500
[8]
  % of cells in upper right quadrant (Q2): 30.4%
[1]
  binding result: no binding (tested: 100 nM)
